From the emibetuzumab library of Makowski et al. (2022)

B1: VH:VL chains; a variant is named by its letters at X, in order (parent)
chain 1: QVQLVQSGAEVKKPGASVKVSCKASGYTFTDYXMHWVRQAPGQGLEWMGXVNPNXXXTTYNQKFEGRVTMTTDTSTSTAYMELRSLRSDDTAVYYCARXNXLDXWGQGTTVTVSS
chain 2: DIQMTQSPSSLSASVGDRVTITCSVSSSVSSIYLHWYQQKPGKAPKLLIYSTSNLASGVPSRFSGSGSGTDFTLTISSLQPEDFATYYCQVYSGYPLTFGGGTKVEIK

Variants of: B1
Experiment: yeast display scFab, FACS + sequencing
Procedure, shortened: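 Non-specific binding was called from deep sequencing of sorted yeast cells displaying a heavy-chain CDR mutant scFab library. Cells labelled with anti-Myc and biotinylated ovalbumin (260 μg/mL in PBSB, 3 h, room temperature) or soluble membrane proteins (130 μg/mL, 20 min on ice) were FACS-sorted, collecting the top 25% and bottom 10% of binders from two replicates. A sequence was positive when present in ≥3 of 4 pooled positive samples and absent from all negatives, and negative under the converse rule.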

Row | Variant | non-specific binding call
1 | DEKGGSSA | no binding
2 | VEGTSSLD | no binding
3 | VETEGDWD | no binding
4 | VETEGDWY | no binding
5 | YEGGTDGA | no binding
6 | YEGRNVGV | binds
7 | DEGKGFGS | binds
8 | VEGRGDGA | no binding
9 | VEGRGDGY | no binding
10 | SETGGDVA | no binding
11 | SETTDSSA | no binding
12 | YETGNVWF | no binding
13 | DEKEGDAA | no binding
14 | YEGTGSWA | no binding
15 | YEKETVVA | binds
16 | SETGADVA | no binding
17 | VEKEGAGD | no binding
18 | VEKGGSGV | no binding
19 | VEKGGSGD | no binding
20 | VEGRGAVY | no binding
21 | DETGNVWF | no binding
22 | AETKGAAA | no binding
23 | AETKGALD | no binding
24 | VERGGDSY | no binding
25 | AETGASLS | no binding

Row | Variant | non-specific binding call
26 | YEGRGDVA | no binding
27 | SEKKSAGA | no binding
28 | SETGAALD | no binding
29 | DEGGTDLD | no binding
30 | VEGGGYSV | no binding
31 | VEGTNDVV | no binding
32 | DEGGTAGA | no binding
33 | DEGGTAGV | no binding
34 | VEKEGDVY | no binding
35 | YEGTGSAD | no binding
36 | VEGTSASV | no binding
37 | VEGRGDVF | no binding
38 | VERGTYGV | no binding
39 | VETGNSSA | no binding
40 | DEGGTDSF | no binding
41 | DEGGTDSA | no binding
42 | AETKGDWD | no binding
43 | AETKGDWV | no binding
44 | VEREADWF | no binding
45 | SETGGDWV | no binding
46 | FEKGSDVA | no binding
47 | VETEGSGV | no binding
48 | YEGTGSGD | no binding
49 | AEGTNAGD | no binding
50 | SETGGAGD | no binding

Row | Variant | non-specific binding call
51 | SEGTGSGD | no binding
52 | YEGTGAGA | no binding
53 | YERRDVLY | binds
54 | DEGGTSGV | no binding
55 | VETGNDVA | no binding
56 | AETTDSWV | no binding
57 | VETGGAVA | no binding
58 | SEGRGDGA | no binding
59 | VETKGDWD | no binding
60 | FERTSVWF chain 1 L45F | binds
61 | DETKGDWD | no binding
62 | DEGGTDWD | no binding
63 | DEGGTDWY | no binding
64 | DEGGTDWV | no binding
65 | DEGGTDAA | no binding
66 | DEGGTDAV | no binding
67 | YEGTGSLS | no binding
68 | DETEGDVF | no binding
69 | YEGTGDVV | no binding
70 | DEGRGSWA | no binding
71 | VETGNSGA | no binding
72 | VEGTSDGD | no binding
73 | VETTDSWV | no binding
74 | VETGNDGV | no binding
75 | VETGNDGA | no binding

Row | Variant | non-specific binding call
76 | YEKEDYLA chain 1 G108D | no binding
77 | FERTSALF | binds
78 | SERRSSAF | no binding
79 | VEGTSDVV | no binding
80 | DEGGTSSA | no binding
81 | SEGRGAAA | no binding
82 | SEKKDYSA | no binding
83 | VEGGTAGS | no binding
84 | DEGKDDVA | no binding
85 | DETGGSSD | no binding
86 | VEGTGAGD | no binding
87 | VETEGAGA | no binding
88 | SEGRGDVY | no binding
89 | FERRAFGY | binds
90 | VEGTSAAY | no binding
91 | SETTDDAV | no binding
92 | AEGTSAVF | no binding
93 | VEGTSDLS | no binding
94 | DEGGTDVD | no binding
95 | DEGGTDVA | no binding
96 | DEGGTDVY | no binding
97 | DEGGTDVF | no binding
98 | FEKEADAF | binds
99 | VERASAVV | no binding
100 | YEGTGAVF | no binding

Row | Variant | non-specific binding call
101 | AEREADWV | no binding
102 | VERKGYLA | binds
103 | SEGTSAVF | no binding
104 | VEGGNDGA | no binding
105 | DEGTGALA | no binding
106 | AETKGDGV | no binding
107 | AETKGDGA | no binding
108 | SEGRGAWY | no binding
109 | AETKGDVY | no binding
110 | VEGTGVGD | binds
111 | VEGRGDAV | no binding
112 | SEKEGDAA | no binding
113 | DEGRGDGV | no binding
114 | SEGGSAAY | no binding
115 | YERRNDVV | no binding
116 | YETETALY | no binding
117 | DEGGTDGY | no binding
118 | DEGGTDGV | no binding
119 | DEGGTDGS | no binding
120 | YEGGTDVV | no binding
121 | SETKGDWD | no binding
122 | SETKGDWA | no binding
123 | VETRSSSV | no binding
124 | VEKTGVGA | binds
125 | VEKKDYSA | no binding

Row | Variant | non-specific binding call
126 | AEGRGAVY | no binding
127 | VEGTSAVF | no binding
128 | VEGTSAVY | no binding
129 | SEGTGSSV | no binding
130 | FEGGTDVV | no binding
131 | DETRSAGA | no binding
132 | DEGGTSLD | no binding
133 | SEKKADWA | no binding
134 | YEKGGAWS | binds
135 | YETEGDVF | no binding
136 | VEKEGDGS | no binding
137 | VEKEGDGV | no binding
138 | VEKEGDGA | no binding
139 | AEGGTDVV | no binding
140 | SEGRGSGV | no binding
141 | VETGNAVY | no binding
142 | VEGTSSGD | no binding
143 | YEKGGDVY | no binding
144 | YEKGGDVD | no binding
145 | VEGTGDWD | no binding
146 | DEGTDYAA | binds
147 | SERRDVLY | binds
148 | AERRGSWS | no binding
149 | VEGTSAGD | no binding
150 | DEGKAAGS | no binding

Row | Variant | non-specific binding call
151 | YERRGSWS | no binding
152 | VETEGSSV | no binding
153 | YERRSSAF | no binding
154 | YERESAAV | no binding
155 | YETKGDWD | no binding
156 | FETGGYVY | no binding
157 | SETGNVWF | no binding
158 | SEREADWF | no binding
159 | DEGRSVAA | binds
160 | YEKETAGV | binds
161 | SEGGTDVV | no binding
162 | YERTTDLS | binds
163 | SETTDSLD | no binding
164 | DEGGTSVD | no binding
165 | VETGGAAA | no binding
166 | DEGGTALA | no binding
167 | VETGNDAV | no binding
168 | AETKGSLA | no binding
169 | VETGNSLV | no binding
170 | DEGTGAVA | no binding
171 | VETRSDVA | no binding
172 | VEKEGDWY | no binding
173 | SEKGGSSA | no binding
174 | VETEGDGV | no binding
175 | VETEGDGF | no binding

Row | Variant | non-specific binding call
176 | DERRSSAF | no binding
177 | SETKGDVY | no binding
178 | VERRGSWS | no binding
179 | VETEGAVY | no binding
180 | VEGKGAGD | no binding
181 | SETGGFVV | no binding
182 | VEKGGDAA | no binding
183 | VETEGDAV | no binding
184 | YETGAAAA | no binding
185 | DEGGTAAA | no binding
186 | SEGTGAGV | no binding
187 | DEGRGDWY | no binding
188 | VETGNDLV | no binding
189 | VEGGTDVA | no binding
190 | VEGGTDVV | no binding
191 | VEGTSSSV | no binding
192 | VETEGDVA | no binding
193 | VETEGDVY | no binding
194 | FEKEGDAA | no binding
195 | VEKGGDVS | no binding
196 | DETGGDWF | no binding
197 | AETKGAVA | no binding
198 | AETAGAAA | no binding
199 | VEKEGDAD | no binding
200 | AETKGFAV | no binding

Row | Variant | non-specific binding call
201 | VEKGGDWD | no binding
202 | VERGGFGS | binds
203 | AERRDDGA | no binding
204 | SETTDDVA | no binding
205 | DEGGTAVA | no binding
206 | DEGGTAVV | no binding
207 | YEKGGAGD | no binding
208 | SEGRGDAA | no binding
209 | SETTDAGV | no binding
210 | SETTDAGD | no binding
211 | DEKKADWA | no binding
212 | DEGGTSAD | no binding
213 | YETTDSWV | no binding
214 | YEKGGDGA | no binding
215 | YEKGGDGV | no binding
216 | YEGGTSGA | no binding
217 | SEGTGDWV | no binding
218 | VEKGGDGV | no binding
